From paper PMC9508834, “Mechanism of protein-primed template-independent DNA synthesis by Abi polymerases” (Nucleic Acids Research, 2022) come the findings set out here.

Data set [1] deals with Abi-P2 of E. coli prophage EC30 (residues 1–541) (E. coli prophage EC30 (Enterobacteria phage P2-EC30)). The experiment in a line: crystal structure; Abi-P2 (1–541) 6 mg/ml, sitting drop at 18°C and 4°C; space group P2(1); 3.1 Å.
Data set [2] has the same target. In words: cryo-EM structure; Abi-P2 1 mg/ml in 20 mM Tris pH 7.0, 500 mM NaCl, 1 mM DTT; tilted dataset, C3 symmetry, 3.9 Å low-quality reconstruction, not deposited.
Data set [3] shares this target. In words: SEC-MALS; Superdex 200 Increase 10/300 GL, 100 μl samples, 25 mM Tris pH 7.0, 400 mM NaCl, 2% glycerol, 1 mM DTT. A general note: In gel filtration, larger molecules generally elute earlier.
Data set [4] deals with the molecule itself. The experiment in a line: cryo-EM structure; Ll-AbiK 1.0 mg/ml on Quantifoil R1.2/1.3 grid, single-particle reconstruction with D3 symmetry, 2.3 Å.
Data set [5] concerns the molecule itself. In words: cryo-EM structure; Ll-AbiK Y44F 1.74 mg/ml on C-flat-2/1 grid, 2D classification; only hexamer classes used for the reconstruction (D3 symmetry, 2.7 Å).

Values joined by “and” are separate entries in the source; they are usually repeats but may differ in a detail not shown here. Identical values can stand only once.

“Abi-P2 of E. coli prophage EC30 (residues 1–541) (enzyme)”: the stoichiometry N in data set [1], in data set [2] and in data set [3] was 3 each time.

B1: Lactococcus lactis AbiK, wild type (Ll-AbiK–DNA adduct) (enzyme)
chain: MKKEFTELYDFIFDPIFLVRYGYYDRSIKNKKMNTAKVELDNEYGKSDSFYFKVFNMESFADYLRSHDLKTHFNGKKPLSTDPVYFNIPKNIEARRQYKMPNLYSYMALNYYICDNKKEFIEVFIDNKFSTSKFFNQLNFDYPKTQEITQTLLYGGIKKLHLDLSNFYHTLYTHSIPWMIDGKSASKQNRKKGFSNTLDTLITACQYDETHGIPTGNLLSRIITELYMCHFDKQMEYKKFVYSRYVDDFIFPFTFENEKQEFLNEFNLICRENNLIINDNKTKVDNFPFVDKSSKSDIFSFFENITSTNSNDKWIKEISNFIDYCVNEEHLGNKGAIKCIFPVITNTLKQKKVDTKNIDNIFSKRNMVTNFNVFEKILDLSLKDSRLTNKFLTFFENINEFGFSSLSASNIVKKYFSNNSKGLKEKIDHYRKNNFNQELYQILLYMVVFEIDDLLNQEELLNLIDLNIDDYSLILGTILYLKNSSYKLEKLLKKIDQLFINTHANYDVKTSRMAEKLWLFRYFFYFLNCKNIFSQKEINSYCQSQNYNSGQNGYQTELNWNYIKGQGKDLRANNFFNELIVKEVWLISCGENEDFKYLN
modifications: DNA (9–17 nt by mass spectrometry) covalently attached by its 5′ end to the hydroxyl group of Tyr44
notes: AbiK of Lactococcus lactis, encoded on plasmid pSRQ800; synthetic gene; theoretical MW of the monomer 71.5 kDa; it says that the whole length of the polypeptide chain is visible in the model except residues 189–190; The short DNA was synthesised in the bacterial cell and co-purified; source: E. coli BL21 Star (DE3), purified (HisTrap, SUMO protease, HisTrap flow-through, Superdex 200); not shown: …
Turning to B1, the stoichiometry N (as a rule, a count of units in the complex or per binding partner) in data set [4] was determined as 6.

B2: Ll-AbiK Y44F (enzyme, Lactococcus lactis)
chain: MKKEFTELYDFIFDPIFLVRYGYYDRSIKNKKMNTAKVELDNEFGKSDSFYFKVFNMESFADYLRSHDLKTHFNGKKPLSTDPVYFNIPKNIEARRQYKMPNLYSYMALNYYICDNKKEFIEVFIDNKFSTSKFFNQLNFDYPKTQEITQTLLYGGIKKLHLDLSNFYHTLYTHSIPWMIDGKSASKQNRKKGFSNTLDTLITACQYDETHGIPTGNLLSRIITELYMCHFDKQMEYKKFVYSRYVDDFIFPFTFENEKQEFLNEFNLICRENNLIINDNKTKVDNFPFVDKSSKSDIFSFFENITSTNSNDKWIKEISNFIDYCVNEEHLGNKGAIKCIFPVITNTLKQKKVDTKNIDNIFSKRNMVTNFNVFEKILDLSLKDSRLTNKFLTFFENINEFGFSSLSASNIVKKYFSNNSKGLKEKIDHYRKNNFNQELYQILLYMVVFEIDDLLNQEELLNLIDLNIDDYSLILGTILYLKNSSYKLEKLLKKIDQLFINTHANYDVKTSRMAEKLWLFRYFFYFLNCKNIFSQKEINSYCQSQNYNSGQNGYQTELNWNYIKGQGKDLRANNFFNELIVKEVWLISCGENEDFKYLN
notes: AbiK of Lactococcus lactis with the protein-priming tyrosine 44 replaced by phenylalanine; Unable to carry out protein-primed DNA synthesis, so it carries no DNA; Purification of the variants is described only in general terms with the wild type; also called Y44F variant; source: E. coli BL21 Star (DE3), purified; not shown: His6-SUMO, N-terminal, cleaved
B2: the “stoichiometry N” value in data set [5] is 3 and 6.
